Results on one variant are retold here after IntAct's records for PubMed 19363481.

B1: DNA repair protein rad60 (Schizosaccharomyces pombe (strain ATCC 38366 / 972)), Q9USX3 (parent)
chain: MDNLDEDDLAFFSKPIKKPPLNYAKQLIASSSDSEEESELDTNKQALEHINAQKNITHNENKSAEPLSRQSTILDADEGNQDVSDTTPNACLNEGRHSPKSAISCVTQPVSPVYNTRAAANLRNNSINSEAALSTTSSLLDDDFARRLEEIDRQVQEFEKSSSDMDVQIHTHKREIEEDDDNTSADVPLLKHSKSDHSTLYHSKSEFSTNEPVISVVLQLAVIGQRIPNSNISLPRDWEAPLFFKVKSNQQFRRVRIAYSERKKVDNVVLVFQNQRLWDYGTPKGAGMLKVDTRLVVHAYCHSDFISLKRIKELEVEKLSSVTEDSTAQTCKLITLLLRSSKSEDLRLSIPVDFTVKDLIKRYCTEVKISFHERIRLEFEGEWLDPNDQVQSTELEDEDQVSVVLD
partner: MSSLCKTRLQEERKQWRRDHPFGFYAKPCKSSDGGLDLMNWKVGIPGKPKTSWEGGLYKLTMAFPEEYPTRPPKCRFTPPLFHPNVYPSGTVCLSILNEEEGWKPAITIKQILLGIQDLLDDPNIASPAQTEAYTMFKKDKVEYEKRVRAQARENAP

Variants of B1 are the subject of the test. The conditions noted are these: with ubc9_schpo hus5, P40984.
On to E380R, for which the “effect of a mutation on the interaction” value is given as “disrupting interaction”.
